This test deals with Clostridium perfringens archaeal-type phosphoenolpyruvate carboxylase (PepcA) (Clostridium perfringens) (UniProt Q8XLE8). The test is described as follows: AUC.

With “Clostridium perfringens archaeal-type phosphoenolpyruvate carboxylase (PepcA) (from UniProt Q8XLE8 1-537) (enzyme)”, the percent of the total concentration as dimer worked out at 30%.

The record behind these values is PMC3092815 (Proteins, 2011).
